For eleven molecules, Reactivity (OD492), expected % binding and OD (A492) results are on record in US9371374.

Where two headings read alike, the source gives them in different places. A value given as a limit tells only on which side of the number the result lay.

Experiment [1] deals with biotinylated HCV core peptide 134-154 (Peptide 1) (HCV-1). As to the kind of experiment: EIA, captured mAb.
Experiment [2] addresses biotinylated HCV core peptide 141-161 (Peptide 2) (HCV-1). Briefly: EIA, captured mAb.
In experiment [3] the target is biotinylated HCV core peptide 151-171 (Peptide 3) (HCV-1). Briefly: EIA, captured mAb.
In experiment [4] the target is T1, HCV Core1-169 (HCV-1), P26664.
T1 chain: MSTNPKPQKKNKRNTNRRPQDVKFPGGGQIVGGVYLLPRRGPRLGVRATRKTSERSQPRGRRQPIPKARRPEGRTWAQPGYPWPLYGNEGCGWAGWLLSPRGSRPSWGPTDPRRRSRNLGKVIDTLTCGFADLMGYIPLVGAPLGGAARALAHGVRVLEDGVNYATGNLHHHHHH
Briefly: SPR sandwich, C11-3 capture. Conditions: remark: other sources report otherwise.

The target is the same in experiment [5]. Briefly: SPR sandwich, C11-7 capture. The settings on record: remark: other sources report otherwise.
Experiment [6] has the same target. Briefly: SPR sandwich, C11-9 capture. Conditions: remark: other sources report otherwise.
Experiment [7] has the same target. As to the kind of experiment: SPR sandwich, C11-14 capture. Conditions: remark: other sources report otherwise.
Experiment [8] has as its target biotinylated HCV core peptide 134-154 (Peptide 1) (HCV-1). As to the kind of experiment: EIA, captured mAb. The source holds these as a separate data set.
The target of experiment [9] is biotinylated HCV core peptide 141-161 (Peptide 2) (HCV-1). Briefly: EIA, captured mAb. The source holds these as a separate data set.
For experiment [10], the target named is biotinylated HCV core peptide 151-171 (Peptide 3) (HCV-1). As to the kind of experiment: EIA, captured mAb. The source holds these as a separate data set.
For experiment [11], the target named is HCV Core1-169 (HCV-1) (UniProt P26664). Briefly: SPR sandwich, C11-3 capture.
The target is the same in experiment [12]. As to the kind of experiment: SPR sandwich, C11-7 capture.
For experiment [13] the target is unchanged. Briefly: SPR sandwich, C11-9 capture.
The target is the same in experiment [14]. As to the kind of experiment: SPR sandwich, C11-14 capture.
Experiment [15] shares this target. As to the kind of experiment: EIA, coated core1-169.

B1: HCV 208B-862 (antibody)
chain 1: DVQLQESGPGLVKPSQSLSLTCTVTGYSITSDYAWNWIRQFPGNKLEWMGYISYSGTTVYSPSLKSRISITRDTSKNQFFLQLNSVTIEDSATYYCGGNYWGQGTLVTVSA
chain 2: DVVLTQTPLSLPLSLGDQASISCRSSQTLLHSDGDTYLHWYLQKPGQSPKLLIYKLSNRFSGVPDRFSGSGSGTDFTLKISRVEAEDLGVYFCSQSTHVPYTFGGGTKLEIKR
Consider B1, for which the results for the Reactivity (OD492) in experiment [1], in [2] and in [3] were 0.21 OD, 3.28 OD and 0.1 OD, respectively.

B2: HCV 208B-911 (antibody, V domains shown)
VH: QVHLQQPGAELVRPGVSVKLSCKASGYTFTTYSINWMKQRPGQGLEWIGNIYPSTSHTNYNQKFRDKATMTVDKSSSTAYMQLSSPTSEDSAVYYCTINAYSMDYWGQGTSVTVSS
VL: QIVLTQSPEIMSASPGEKVTITCSASSSVSFMYWFQQKPGTSPKLWIYITSNLASGVPTRFSGSGSGTSYSLTISRMEAEDAATYYCQQRSSFPYTFGGGTKLEMKR
On to B2, for which the Reactivity (OD492) was 0.09 OD in [1], 0.09 OD in experiment [2] and 0.71 OD in experiment [3].

B3: HCV 208B-174 (antibody, V domains shown)
VH: EVKLEESGGGLVQPGGSMKLSCVASGFSFSSYWMSWVRQSPEKGLDWVAEIRLRSDNYATHYAESVKGRFTISRDDSISRLYLQMNTLRAEDTGIYYCTWMTYWGQGTLVTVSA
VL: QNVLTQSPAIMSASPGEKVTMSCSASSSVTYMFWYQLKPESSPRLLIYDTSNLASGVPVRFSGSGSGTSYSLTISRMEAEDAATYYCQEWSSYPLTFGAGTKLDLKR
B3: the Reactivity (OD492) in experiment [1] is 0.08 OD; in [2] it was 1.26 OD; in [3], 0.07 OD. Besides, the expected % binding was 1.6% in experiment [4], 1.5% in experiment [5], < 1% in experiment [6] and 1.6% in experiment [7].

B4: HCV 208B-826 (antibody, V domains shown)
VH: DVQLVESGGGLVQAGGSRKLSCAASGFPFSSFGMHWVRQAPEKGLEWVASISSRTSKIYYADNLKGRFTISRDNPKNTLFLQMTSLGSEDTAMYYCVRSVFGNSYWFFDVWGAGTTVTVSS
VL: DIVLTQSPATLSVTPGDRVSLSCRASQRIYNYLHWYQQKSHESPRLLTKYASQSISGIPSRFSGSGSGTDFILTINSVETEDFGMYFCQQSNSWPLTFGAGTKLELRR
On to B4, for which the Reactivity (OD492) in [1] came out at 0.53 OD; in experiment [2], 1.35 OD; in experiment [3], 0.08 OD.

B5: HCV 208A-967 (antibody, V domains shown)
VH: QVQLEESGPGLVAPSQSLSITCTVSGFSLTSYGVHWVRQPPGKGLEWLGVIWAVGSINYNSALMSRLSISKDNSKSQVFLKMNSLRTDDTAMYYCARDRTTATPFFDYWGQGTTLTVSS
VL: DIVLTQSPASLAGSLGKRAPISCKASESVNFFGTNLIHWYQQKPGQPPKLLIYHASNLKTGVPARFRGRGSKTNFPLPIDPVEENDVAIYYCLQNRKIPLTFGVGTKLELKR
As for B5, the Reactivity (OD492) in experiment [8] came to 0.52 OD; in experiment [9], 0.73 OD; in [10], 0.18 OD. Further, the expected % binding in the experiment with HCV Core1-169 (HCV-1) [11], with HCV Core1-169 (HCV-1) [12], with HCV Core1-169 (HCV-1) [13] and with HCV Core1-169 (HCV-1) [14] was < 1% each time.

B6: HCV 208A-874 (antibody, V domains shown)
VH: QVQLQQPGAELVKPGASVKLSCKASGYTLSSYWMHWVKQRPGQGLEWIGEIHPSDSYTSYNQKFKDKATLTVDKSSSTAYMQLSSLTSEDSAVYYCARGGYYRYDEFAYWGQGTLVTVSA
VL: DIVMTQSHKFMSTSIGDRVSITCKASQNVSPAVAWYQQKPGQSPKLLIYSASSRYTGVPDRFTGSGSGTAFTFTISSVQAEDLAVYFCQQHFSTPWTFGGGTMLEIKR
For the molecule B6, the expected % binding with HCV Core1-169 (HCV-1) [11], with HCV Core1-169 (HCV-1) [12], with HCV Core1-169 (HCV-1) [13] and with HCV Core1-169 (HCV-1) [14] was < 1% in each case. In addition, the Reactivity (OD492) worked out at 0.05 OD in [1], 0.73 OD in experiment [2] and 0.06 OD in experiment [3].

B7: HCV 208A-983 (antibody, V domains shown)
VH: QGQMQQSGAELVKPGASVKLSCKTSGFTFSSSYFSWLKQKPGQSLEWIAWIYAGTGNTIYNQKFTDKAQLTVDTASSTAFMQLSSLTIEDSAIYYCAISGTGFTYWGQGTLVTVSA
VL: DVLMTQTPLSLPVNLGDQASISCRSSQSLLHSNGNTYLEWFLQKPGQSPKLLIYNVSNRFSGVPDRFSGSGSGTDFTLKISRVEAEDLGVYYCFQGSHVPFTFGSGTKLAIKR
As for B7, the Reactivity (OD492) amounted to 3.03 OD in experiment [1], 0.4 OD in experiment [2] and 0.05 OD in [3]. Moreover, the expected % binding in experiment [4], in experiment [5], in [6] and in [7] was < 1% each time.

B8: HCV 208A-692 (antibody, V domains shown)
VH: QGQMQQSGAELAKPGASVKLSCKTSGFTFSSSYISWLKQKPGQSLEWIAWIFAGTGNTNYNQKFTDKAQLTVDTSSSTAYMQLSSLTTEDSAIYYCAISGTGFTYWGQGTLVTVSA
VL: EVLMTQSPLSLPVSLGDQASISCRSSQSLEHSNGNTYLEWFLQRPGQPPKLLIYKVSSRFSGVPDRFSGSGSGTDFTLKISRVEAEDLGVYYCFQGSHVPFTFGSGTKLAIKR
With B8, the Reactivity (OD492) in [9] amounted to 0.38 OD; in experiment [1], 3.67 OD; in experiment [3], 0.07 OD.

B9: HCV 208B-471 (antibody, V domains shown)
VH: QGQLQQSGPVLVKPGASEILYCKTSGFTFSSTYISWLKQKPGQSLEWIAWIYAGTGATNYNQKFTGKAQLTVDASSNTAYMHFSGLTPEDSAIYYCAISGAGVYWGQGTLVTVSA
VL: DVVMTQTPLSLPVSLGDQASISCRSSQSLLHSNGNTYLEWYLQKPGQSPNLLIYNVSNRFSGVPDRFSGSGSGTDFALKISRVGAEDLGVYYCFQGSHVPLTFGAGTKLELKR
On to B9, for which the results for the Reactivity (OD492) in [1], in [2] and in experiment [3] were 1.62 OD, 0.11 OD and 0.08 OD, respectively. The expected % binding in experiment [4], in experiment [5], in experiment [6] and in experiment [7] was < 1% in each case.

B10: HCV 208B-353 (antibody, V domains shown)
VH: EVQLVESGGDLVKPGGSLKLSCAASGFTFNHYGMSWVRQPPDKRLEWVATISSGGGYTYYPDSVKGRFTISRDNAKDTLSLQMSSLRSGDTAVYYCASLYGSLFAYWGQGTLVTVSA
VL: DIVMTQSQKFMSTTVGDRVRVTCKASQNVGTAVAWYQQKPGQSPKLLIYSASNRYTGVPDRFTGSGSGTDFTLTITNMQSEDLADYFCQQYSTYPLTFGSGAKLEIKR
In turn, B10 had an OD (A492) with HCV Core1-169 (HCV-1) [15] of 0.3 OD. Further, the expected % binding with HCV Core1-169 (HCV-1) [11] is 1.9%; with HCV Core1-169 (HCV-1) [12] it was 2.6%; with HCV Core1-169 (HCV-1) [13] it was < 1%; with HCV Core1-169 (HCV-1) [14] it was 2.4%. The results for the Reactivity (OD492) in [1], in experiment [2] and in [3] were 0.07 OD, 2.47 OD and 0.07 OD, respectively.

B11: HCV 208B-822 (antibody, V domains shown)
VH: QVQLKQSGPGLVQPSQSLSITCTVSGFSLITYGVHWVRQSPGKGLEWLGVIWGGGSTGYNAAFVSRLNITKDNSKSQVFFKMNSLQPDDTAIYYCARNGGATVFDYWGQGTTLTVSS
VL: DIVMTQSPATLSVTPGDRVSLSCRASQTISDYLHWYQQKSHESPRLLIKYASQSISGIPSRFSGSGSGSHFTLSINSVEPEDVGVYYCQNGHSFPWTFGGGTKLEIKR
Take B11: the Reactivity (OD492) in [1] was found to be 0.08 OD; in [2], 1.35 OD; in experiment [3], 0.07 OD.
